# Laboratory results from patent US12570957B2, “Isolated naive pluripotent stem cells and methods of generating same” (Yeda Research and Development Co. Ltd., priority 2013, dated 2026).
# B1: BMP4: bone morphogenetic protein 4, recombinant human (protein, UniProt P12644 293-408, looked up)
# Bone morphogenetic protein 4: SPKHHSQRARKKNKNCRRHSLYVDFSDVGWNDWIVAPPGYQAFYCHGDCPFPLADHLNSTNHAIVQTLVNSVNSSIPKACCVPTELSAISMLYLDEYDKVVLKNYQEMVVEGCGCR
# Tests used:
# Type in all cases: cell-based
# WIS1 naive human ESCs = assay: PGCLC induction from naive ESCs, NANOS3-mCherry FACS; conditions: 2 days N2-KSR medium then 4 days PGC medium
# Text: FIGS. 96A-96I depict the process of differentiating human ESCs into primordial germ cell like cells. FIG. 96A—schematic illustration of the differentiation process. FIGS. 96B-96I—FACS analyses for detecting PGCLC marker expression NANOS3-Cherry. […] Shown are FACS results after 2 (FIGS. 96D and 96G), 4 (FIGS. 96E and 96H), and 6 (FIGS. 96F and 961) days in the PGC medium. The Figures show specific induction of mCherry reporter at Day 2+4 and only when BMP4 is included in the differentiation medium (FIG. 96E). […] One representative experiment is shown out of five performed. +/− indicates s.d. (n=5).
# N2-KSR medium—250 ml Neurobasal medium (Invitrogen—#21103-049), 250 ml DMEM-F12, N2 supplement (Invitrogen, #17502-048), 1% KSR (knockout serum replacement, Invitrogen, #10828028) medium] with 8 ng/ml bFGF (Peprotech), 1 ng/ml TGF-β1 (Peprotech) and ROCKi (10 μM).
# PGC medium is comprised of GMEM (Invitrogen, #21710082), 15% KSR, 1% NNEA (Biological industries, 01-340-1B), Penicillin-Streptomycin, 1 mM L-Glutamine, […] (Y-27632, Axon Medchem) and the following cytokines: 500 ng/ml BMP4 (bone morphogenetic protein 4; R&D Systems Inc.), 20 ng/ml LIF (leukemia inhibitory factor; PeproTech), 100 ng/ml SCF (Stem Cell Factor; PeproTech), 50 ng/ml EGF (Epidermal Growth Factor; Peprotech). […]
# naive hESCs/hiPSCs = assay: Pluripotency maintenance after supplementation of inhibitors or growth factors; conditions: naive human cells in WIS-NHSM
# Protocol: (§1) Shown are histograms depicting colony formation of pluripotent cell lines in various media. Cell populations were equally divided and plated on gelatin/vitronectin coated plates in the indicated growth medium in which these cell lines are normally maintained (mouse naive cells in a medium containing 2i/LIF, naive hESCs/iPSCs in a WIS-NHSM medium, mouse EpiSCs and human primed ESCS/iPSCs in a KSR/bFGF/TGFβmedium). 36 hours later the wells were supplemented with the indicated inhibitors or growth factors. After 14 days (2 passages), wells were analyzed for Oct4-GFP pluripotency marker expression by FACS, to determine the relative percentage of pluripotent colonies. Pluripotent cell frequency was normalized to an internal control, as indicated by “Growth medium” only on the far left column (For naive cells growth medium was WIS-NHSM, and for primed cells was conventional KSR/bFGF/TGFβcontaining medium as specified in methods). […]
# (§2) FIGS. 108A-108C—Signaling and functional characteristics of human naive pluripotency. […] After 14 days (2 passages), wells were analyzed by OCT4 immunostaining of direct detection of OCT4-GFP pluripotency reporter expression, to determine the relative percentage of undifferentiated pluripotent cells. […] After 20 days, colonies positive for OCT4 pluripotency markers were counted and normalized to colonies from cells electroporated with empty vector. […]
# primed hESCs/hiPSCs = assay: as above; conditions: primed human cells
# Protocol: as §1, §2
molecule,measurement,setting,value
B1,cells expressing NANOS3-mCherry reporter,WIS1 naive human ESCs,17.7%
same,response of pluripotent state,naive hESCs/hiPSCs,do not differentiate
same,response of pluripotent state,primed hESCs/hiPSCs,differentiated
